Measurements taken from the nanobody polyreactivity screen of Harvey et al. (2022).

Assay: yeast display, Sf9 membrane polyspecificity reagent, FACS + sequencing; frameworks hold sequencing errors
Outline: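 A nanobody's polyreactivity label depends on the gate it was sorted from. Yeast display cells were stained with 10% biotinylated, detergent-solubilized Sf9 membrane reagent for 1 hour at 4 °C, enriched on streptavidin microbeads and sorted by FACS. The low and high (top ~1%) gates were set on anti-HA fluorescence for expression and streptavidin fluorescence for reagent binding.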

Sequence | polyreactivity (PSR sort gate)
QVQLVESGGGLVQAGGSLRLSCAASGSIFYTYAMGWYRQAPGKERELVAVISYGGGRTYYADSVKGRFTISRDNAKNTVYLQMNSLKPEDTAVYYCAASYSFYAFSVPYYYWGQGSQVTVSS | high polyreactivity
QVQLVESGGGLVQAGGSLRLSCAASGIIFRGNAMGWYRQAPRKERELVAAISSAGSTNYADSVKGRFTISRDNAKNTVYLQMNSLKPEDTAVYYCAKGSSKYHVTLRGRGYYWGQGTQVTVSS | low polyreactivity
QVQLVQAGGGLVQAGGSLRLSSAPSGFTLYHYARGWYSQAPGKERQLVASITRSGASTYYPDSVKGRFTISRDNAKYTVYVQMNSLKPEDPAVYYCNKVRYTSSIWTYYDWGQGTQVTVSS | high polyreactivity
QVQLVESGGGLDQAGGSLRLSCAASASIFQRSAKCWYRQAPGKETELVAAITNGGGSTYYADSVKGRFTISRDNAMNTVYLQMNSLKPEDTAVYYCAKDGHSYYPWEYDYWVQGTQVTVSS | low polyreactivity
QVQLVESGGGLVQAGGSLRLSCAASGSIFRYYAKGWYRHAPGKERELVAVISRSGTRTYYADSVKGRFTISRDNAKNTVYLQMNSLKPEDTAVYYCAAKDERRSFGMGYWGQGTQVTVSS | high polyreactivity
QVQLVESGGGLVQAGGSLRLSCAASGSIFWNNAMGWYRQAPGKEREFVATITWSGDSTYYADSVKGRFTISRDNAKNTVYLQMNSLKPEDTAVYYCAALLDYSVADLYSHHVSRYYYWGQGTQVTVSS | low polyreactivity
QVQLEESRGGLVQAGGSLRLSCAASGYTLYEYAMGWYRQAPGKERELDAAITRSGGSTYYADSVKGRFTISRDNAKNTVYLQMNSLKPEDTAVFYCNADIYSRHTVGGYYYWGQGTQVTVSS | high polyreactivity
QVQLVESGGGLVQAGGSLRLSCAASGRILYPYAMGWYRQAPGTERELVAAITFRGGNTYYADSVKGRFTISRDNAKNTVYLQMNSLKPEDTAVYYCAKRGGYWHKFDYWGQGTQVTVSS | high polyreactivity
QVQLVESGGGLVQAGGSLRLSCAASGRIFWNYAMGGYRQAPGKERELVASINWSGGSTYYADSVKGRFTISRDNAKNTVYLQMNSLKPEDTAVYYCNKDGRVYLDHDYWGQGTQVTVSS | low polyreactivity
QVQLVESGGGLVQAGGSLRLSCAASGGIFSSYAMGGYRQAPGKERELVASISRRGTSTYYADSVKGRFTISRDNAKNTVYLQMNSLKPEDTAVYYCAAGTKYTSAVHFYYWGQGTQVTVSS | high polyreactivity
QVHLVESGGGLVQAGGSLRLSCAASGFIFPAYVMGWYRQAPGKERELVAVIGSGGSTSYADSVKGRFTISRDNAKNTVYLQMNSLKPEDTAVYYCTADPTWFGYVYYQYDYWGQGTKVTVSS | low polyreactivity
QVQLVESGGGLVQAGGSLRLSCAASGRNYVPYAMGWYRQAPGKERELVAALSNSGGSTYYADSVKGRFTISRDNAKNTGYLQRNSLKPEYTAVYFCAPDGRYAYGYNHWGQGTQVTGSS | low polyreactivity
QVQLVESAGGLVQAGGRLRLSCAASGRTFTYYAMGWYRQAPGKERELVAAISFSGGRTYYADSVKGRFTISRDYAKNTVYLQMNSLKPEDTAVYYCAAENYYTRYRDRDYWGQGTQVTVSS | high polyreactivity
QVQLVESRGGLVQAGGSLRLSCAASGSTFGWYAMGWYRQAPGKERELVASITSGGRTNYADSVKGRFTISRDNAKITVYLQMNSLKPEDTAVYYCAKRVYGSYSLYDYWGQGTQVNVSS | low polyreactivity
QVQLVEAGGGLVQAGGRLRLSCAASGRIFGRTAMGWYRQAPGKERELGAAIRRSSASTYYADSVKGRFTISRDNAKNTFYLQMNSLKPEDTAVYYCATQSYSYYGYRYRYAAFDYWGQGTQVTVSS | high polyreactivity
QVQLVESGGGLVQAGGSLRLSCAASGSIFYDYAMGWYRQATRKERELVPAITNDDSSTYYADSVKGRFTISRDNAKNTVYLQMNSLKPEDTAVYYCRFKYAVAHHFWVYRYDYWGQGTQVTVSS | low polyreactivity
QVQLVESGGGLVQAGGSLRLSCAASGRTFSKYAMGWYRQAPGKERELVAAITSGGGTYYADSVKGRFTNSRDNAKNTVYLQMNSLIPEDTGVYSCAVSVTTVSTYDYWGQGTQVTVSS | low polyreactivity
QVQLVESGGGLVQAGGSLRLSCAASGSIFYTNAMGWYRQAPGKERELVAAIRYSGVSTYYADSVKGRFTISRDNAKNTVYLQMNSLKPEDSAVYSCAARGHPFKKSYGSWGQGTQVTVSS | high polyreactivity
QVQLVESGGGLVQAGGSLRLSCAASGRIFDVNAMGWYRQAPGKERELVAAIRSGGRTNYADSVKGRFTISRDNAKNTVYLQMNSLKPEDTAVYYCAAVVWSSLDDYWGLGTQVTVSS | high polyreactivity
QVQLVESGGGLVQAGGILRLSSAASGFTFGYYAMGWYRQAPGTQRELVAAINWSGGRTYYADSVKGRFTISRDNAKNTVYLQMNSLKPEDTAVYYCAADPKKGRQMYYWGQGTQVTVSS | high polyreactivity
QVQLVESGGGLVQAGGSLRLSCAASGSIFDGYGMGWSRQAPGKERELVAGITSGGSTYYADSVKGRFTISRDNAKNTVYLQMNSLKPEDTAVYYCATVVRYSNARGDYWGQGTQVTVSS | low polyreactivity

Sequence | polyreactivity (PSR sort gate)
QVQLVESGGGLVQAGGSLRLSCAASGFTFNNYAMGWYRQAPGKERELVAAISSGAGTYYADSVKGRFTISRDNAKNTVYLQMNSLNPVDTSVDYCNASLKYQGRTRITYRDDYWGQGTQVTVSS | low polyreactivity
QVQLVESGGGLVQAGGSLRLSCAASGFIFQAYAMGWYRQAPGKERELVAAISSSGGSTYYADSVTGRFTISRDNAKNTVYLQMNSLKPEDTAVYYCAALRYVKMLAQAYEYWGQGTQVTVSS | high polyreactivity
QVQHVESGGGLVQAGGSLRLSCAASGRTFEVFAMGWYRQAPRKERELVATITYSGGITYYADSVKGRFTISRDKAKNTVYLQMNSLKPEDTAVYYPIGVGGDYDYCGQGTQVTVSS | low polyreactivity
QVQIVESGGGLVQAGGSLRLSCAASGRNFGRYAMGWYRHAPRKERELVATISSGGSTYYADSVKGRFTISRDNAKNTVYLPMNSLKQEDTAVYYCAADYLSYYLYEGSIKYGYWGQGTQVSVSS | high polyreactivity
QVQLVESGGGLVQAGGSLRLSCAASGSTSWYDMGWYRQPPGKERELVASISSGDSTNYADSVKGRFTISRDNAKNTVYLQMNSLKPDDTAVYYCAADFNVGFVWGDDSDYWGQGTQVTVSS | low polyreactivity
QVQLVESRGGLVQAGGSLRLSCAASGYILWRYAMGWYRQAPGKERELVASISSGVSTNYADSVKGRFTISRDNAKNTVYLQMYSLKPEDTAVYYCKTGRWLLGSMEYWGQGTEVTVSS | low polyreactivity
QVQLVESGGGLVQAGGSLRLSCAASGFTFYYYAMGWYRQAPGKERELVAAITSGGSTYYADSVKGRFTISRDNAKNTVYLQMNSLKPEDTAVYYCNTVHYNLDYEYDYWGQGTQGTVSS | low polyreactivity
QVQLVESGGGLVQAGGSLRLSCAASGLSFPLNAMGWYRPAPGKERQLVAAITYSGGGTYYADSVKGRFTISRDTAKNTGYLQMNSLKTEDTAVYYCAADGSVSYYTYYYWGQGTQVTVSS | low polyreactivity
QVQLVESGGGLVQAGGSLRLSSAASGIIFTYYAMGWYRQAPGKERELVAAISSGGGSTYYADSVKGRFTISRDNAKNTVYLQMNSLKPEDTAVYYCNADYYFVYTYLHDYWGQGTQVTVSS | low polyreactivity
QVQLVESGGGLVQAGGSLRLSCAASGSIFYYNAMGWYRQAPGKERELVAAISSSGGSTYYADSVKGRFTISRDNAKNTVYLQMNSLKPEDTAVYYCAAKLRHWAHHTKYDYWGQGTQVTVSS | low polyreactivity
QVQLVESGGGLVHAGGSLRLSCAASGRTFGKYAMGWYRQAPGKERELVAAISSGGTTYYADSVKGRFTISRDNAKNTVYLQMNSLKPEDTAVYYCAADPRYPYNYWGQGTQVTVSS | low polyreactivity
QVQLEESGGGLVQAGGSLRLSCAASGRIFSYNAMGWSIPAPGKERELVAAISYSGGRTYYADSVKGRFTISRDNAKNTVYLQMNSLKPEDTAVYYCAAKRKIRGYGPYEYWGQGTQVTVSS | high polyreactivity
QVQLVESGGGLVQAGGSLRLSCAASGFIFSRNAMGWYRQAPGKERELVAAISAGGGSTYYADSVKGRFTISLDNAKYTVYLQMNSLKPEDSAVYSCAAYFRSQFGYWGQGTEVTVSS | high polyreactivity
QVQLVESGGGLVQAGGSLRLSCAASGITLNGYVMRWYRQAPGKEREFVAVISSRGGSTYYADSVKGRFTISRDNAKNTVYLQMNSLKPEDTAVYYCAARYVREYNYWGQGTQVTVSS | high polyreactivity
QVQLVESGGGLVQAGGSLRLSCAASGSIFQYYAMGWYRQAPGKERELVAAISSGGRTNYADSVKGRFTISRDNAKNTDYLQMNSLKPEDTAVYYCAAARYYYQVYRWEYDYWGQGTQVTVSS | high polyreactivity
QVQLVESGGGLVQAGGSLRLSCAASGRIFSYNAMGWYRQAPGKERELVASISWSGGRTYYADSVKGRFTISRDNAKNTVYLQMNSLKPEDTAVYYCNAAYYTRVWGYDYWGQGTQVTVSS | high polyreactivity
QVQLVESGGGLVQAGGSLRLSCAASGIIFFGYAMGWYRQAPGKERELVADITNGGRTYYADSVKGRFTISRDNAKNTVYLQMNSLKPEDTAVYYCAADAFWEVYYYNALEYDYWGQGTQVTVSS | high polyreactivity
QVQLVESGGGLVQAGGSLRLSCAASGLTCYYYARGLYRQAPGKERELVADISSGGSTKYADSVKGRFTISRDNAKNTVYLQMNSLKPEDTAVYYCATGYFCGFRYRPYYYWGQGTQVTVSS | high polyreactivity
QVQLVESGGGLVQAGGSLRLSCAASGRIFAPYDMGWYRQAPGKERELVASITSGGSTNYTDSVKGRFTISRVNAKNTVYLQMNSLIPEDTAVYYCNTAKISEPIDPRQRVWGRTYDYWGQGTQVTVSS | low polyreactivity
QVQLVESGGGLVQAGGSLRLSCAASGSTFEPYAMGWYRQAPGKEREFVAAISGSGGSTYYADSVKGRFTISRDNAKNTVYLQMNSLKPEDTAVSYCAKDSFPWVDDDYWGQATQVTVSS | low polyreactivity
